Test results reported in paper PMC7042329, “AMPK-dependent activation of the Cyclin Y/CDK16 complex controls autophagy” (Nature Communications, 2020).

Target: T1, Cyclin Y-Flag (human, UniProt Q8ND76-1 1-341)
T1 construct: Cyclin Y, human, isoform 1 (CCNYiso1 cDNA clone in pcDNA3-FLAG); In cells partly phosphorylated at S326 (more after AICAR/A769662) and at S336; also called Cyclin Y-Flag-wt; wild-type Cyclin Y; source: HeLa or U2OS, transfected, in lysate
Assay: co-IP; HeLa cells transfected with Cyclin Y-Flag, with or without GFP-tagged CDK; with or without 0.5 mM AICAR/50 µM A769662 for 1 h; lysate in Frackelton buffer, anti-FLAG M2 beads 2 h at 4 °C, three washes, immunoblot
Settings: partners not purified

T1 sequence (Q8ND76 whole entry, canonical isoform): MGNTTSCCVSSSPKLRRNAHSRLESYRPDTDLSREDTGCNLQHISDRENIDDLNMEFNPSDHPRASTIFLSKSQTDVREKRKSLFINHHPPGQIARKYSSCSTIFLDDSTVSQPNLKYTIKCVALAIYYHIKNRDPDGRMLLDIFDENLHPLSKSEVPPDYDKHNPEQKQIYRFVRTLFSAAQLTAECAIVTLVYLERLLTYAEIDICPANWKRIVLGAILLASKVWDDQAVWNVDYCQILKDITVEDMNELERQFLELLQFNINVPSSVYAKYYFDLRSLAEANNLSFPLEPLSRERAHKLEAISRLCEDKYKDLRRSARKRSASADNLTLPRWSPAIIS

B1: GFP-CDK16 (enzyme)
chain: not shown
notes: Cyclin-dependent kinase 16 (CDK16), human, isoform 1; also called GFP-CDK16-wt; PCTAIRE1; source: HeLa, transfected, in lysate
- fold change of co-immunoprecipitated CDK16 with AICAR/A769662 against untreated: 2 fold
